In patent US20250206839A1, “METHODS, COMPOSITIONS AND USES FOR SEMA7A MONOCLONAL ANTIBODIES” (THE REGENTS OF THE UNIVERSITY OF COLORADO, A BODY CORPORATE, priority 2022, published 2025):

Tests used:
TC11 cells = assay: Cell viability, crystal violet, 48 h; type: cell-based, mouse; details: TC11, 500 nM SmAbH1 vs 8 nM Fulvestrant
Method: (§1) For proliferation assays, cells were plated at 2000 cells per well of a 96-well dish. Four pictures of different regions in each well were taken every four hours for 48 h using an IncuCyte ZOOM (Essen BioScience, Ann Arbor, MI, USA). Percent confluence was determined using the IncuCyte ZOOM software (Essen BioScience). 66cl4 Sema7A DDK cells were plated in a 96-well plate in triplicate at 1,500 cells/well. They sat down over 24 hours and then were treated with 1000 nM IgG control, 10 nM SmAbH1, 100 nM SmAbH1, 200 nM SmAbH1, 500 nM SmAbH1, or 1000 nM SmAbH1. The plate was promptly transferred to the IncuCyte where photos were taken and analyzed every 4 hours for 7 days. For additional treatment studies in MCF7, TC11 and SSM2 cells ([…]) were plated in a 24-well plate in complete media and allowed to sit down over 24 hours. At 24 hours after plating, cells were treated with 500 nM IgG control, 500 nM SmAbH1, 8 nM Fulvestrant or the combination. The plate was incubated at 37 C for 48 hours, then fixed with 10% NBF and stained with crystal violet.

SSM2 cells = assay: Cell viability, crystal violet, 48 h; type: cell-based, mouse; details: SSM2, 500 nM SmAbH1 vs 8 nM Fulvestrant
Method: as §1

SEMA7A expressing cells = assay: Mammosphere formation and cell death in vitro; type: cell-based
Method: In another exemplary method, it was observed that SEMA7A was sufficient to promote stem cell phenotypes, including mammosphere formation, anchorage independent growth and resistance to chemotherapy, which is a property of cancer stem cells. Finally. SEMA7A expressing cells display increased functions and markers of cancer stem cells.
MCF10A and MCF12A cells were labeled with CellTrace Violet (ThermoFisher: #C34557) for 20 min at 37° C., according to the manufacturer's instructions. A sample of labeled cells was analyzed by flow cytometry to determine labeling efficiency and fluorescent intensity at time of seeding. Single cells were seeded at a density of 4000 cells/well in μltra-low attachment 24-well plates to induce mammosphere formation. Cells were cultured in normal culture media for 7 days and were subsequently counted, dissociated enzymatically in Accutase, (Stem Cell Technologies, Vancouver, Canada: #07922), and analyzed by flow cytometry. See flow cytometry methods for detailed information.

[1] = test system: activated T cells in the tumors; assay: Flow cytometry of immune cells in treated tumors; type: in vivo, mouse; details: IFNg and TNFa on CD8+ T cells
Method: For initial in vivo studies with SmABHI. SEMA7A OE E0771 mouse mammary carcinoma cells were injected into mice. Twenty days after carcinoma cells were injected. SmAbH1 (e.g., 12 ug) was administered intraperitoneally to the mice every three days until day 36 post-carcinoma cell injection. Tissues were collected at day 36. Tumors, lungs, and LNs were harvested and processed for IHC and flow cytometry to determine the effect of SEMA7A mAb therapy on cells of the tumor microenvironment (TME). In an additional experiment, tumors were treated at day 28 post-injection with a novel SEMA7A directed antibody, monoclonal antibody clone H1. Fully regressed tumors were removed from treatment at day 50) and the animals were re-challenged with an additional tumor inoculation at day 90 to assess SEMA7A mAb effects. […]
Tumors were separated from the mammary gland and placed in six-well plates with 2 mL of Click's media without mercaptoethanol or L-glutamine (Irvine Scientific, Santa Ana, CA), where they were minced with scalpels, digested with 500 units/ml collagenase type II and IV and 20 μg/ml DNase (Worthington Biochemical Corporation, Lakewood, NJ) and incubated for 1 h at 37° C. […] Geometric mean fluorescence intensity (gMFI) was calculated with FlowJo software. […] Cells were then stained with CD8, CD45, CD4, Gating was determined based on unstimulated controls. […]

[2] = test system: MCF10ADCIS GFP human breast cancer cells; assay: DCIS mouse model, tumor growth and invasion; type: in vivo; details: IP every third day from day 21
Method: DCIS model: Female SHO mice, aged 6-8 weeks old, are injected with 250,000 MCF10ADCIS GFP human breast cancer cells into both #4 mammary fat pads, then palpated and measured three times a week with digital calipers and tumor visualization is aided by use of the illumatool light source with GFP filter so we can accurately measure tumors. Treatment with SmAb started at day 21 post injection. SmAb treatment is given by IP injection every third day. Weights are taken every treatment day and mice are monitored for weight loss and other health/behavior changes.

B1: SmAbH1: mouse monoclonal antibody against SEMA7A generated using the 10-mer immunizing peptide … (SEQ ID NO: 2) (antibody, V domains shown)
VH: QVKLQESGTVLARPGASVKMSCKASVYSFTSYWMHWVKQRPGQGLEWIGAIYPGNSDTSYNQKFKGKAKLTAVTSASTAYMELSSLTNEDSAVYYCTRGGAPTMITAYYAMDYWGQGTSVTVSS
VL: DIQMTQTTSSLSASLGDRVTISCRASQDISNYLNWYQQKPDGTVKLLIYYTSRLHSGVPSRFSGSGSGTDYSLTISNLEQEDIATYFCQQGNTLPWTFGGGTKLEIKR
With B1 the “cell viability compared to fulvestrant” value (TC11 cells) was “more significantly reduced”, the “cell viability compared to fulvestrant” value (SSM2 cells) was “more significantly reduced” and the cell death (SEMA7A expressing cells) was “induce cell death”. The mammosphere formation (SEMA7A expressing cells) was “reduce mammosphere formation”, the “activated T cells in the tumors” value [1] was “increased presence of activated T cells” and the “tumor growth and invasion of ductal carcinoma in situ (DCIS) lesions” value [2] was “block or inhibit tumor growth and invasion”.
